From PMC7354924
Each block holds one substance with its values, some of them ahead of it.

Key:
[1] = biological target: growth differentiation factor 5 (GDF5), wild type (UniProt P43026); test: SPR; ProteOn XPR36; BMP2 (570 RU), GDF5 (470 RU), TGF-β2 (300 RU) or activin A (350 RU) amine-coupled to a GLC sensor chip; analyte perfused (RGMB 50 to 1.56 nM at 150 or 100 µl/min; BMPR1A 1000 to 31.25 nM at 100 µl/min); 20 mM HEPES pH 7.4, 500 mM NaCl, 3.4 mM EDTA, 0.005% (v/v) Tween 20; 25 °C; Langmuir 1:1 kinetic fit (parameters local for RGMB), Kd = koff/kon; apparent
Target sequence in this assay (P43026 28-501): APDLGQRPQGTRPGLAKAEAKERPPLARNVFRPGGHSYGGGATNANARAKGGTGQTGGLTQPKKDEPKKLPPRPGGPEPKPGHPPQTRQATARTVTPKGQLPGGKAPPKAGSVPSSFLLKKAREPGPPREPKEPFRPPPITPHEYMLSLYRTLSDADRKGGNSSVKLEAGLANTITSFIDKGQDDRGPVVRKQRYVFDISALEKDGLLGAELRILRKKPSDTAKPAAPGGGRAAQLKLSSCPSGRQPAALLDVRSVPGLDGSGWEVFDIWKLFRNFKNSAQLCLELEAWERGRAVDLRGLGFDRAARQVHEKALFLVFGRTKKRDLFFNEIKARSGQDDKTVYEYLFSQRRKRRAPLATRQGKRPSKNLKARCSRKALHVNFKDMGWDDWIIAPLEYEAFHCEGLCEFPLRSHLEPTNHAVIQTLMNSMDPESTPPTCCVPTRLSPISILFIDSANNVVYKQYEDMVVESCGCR

[2] = biological target: bone morphogenetic protein 2 (BMP2) (UniProt P12643); test: SPR
[3] = biological target: growth differentiation factor 5 (GDF5), wild type (UniProt P43026); test: SPR; BMPR1A with BMP2, GDF5 and GDF5 variants; set-up not told for this pair in the main text (values in the discussion, SI Appendix Table S1); taken as the ProteOn set-up with immobilized ligands
Target sequence in this assay (P43026 382-501): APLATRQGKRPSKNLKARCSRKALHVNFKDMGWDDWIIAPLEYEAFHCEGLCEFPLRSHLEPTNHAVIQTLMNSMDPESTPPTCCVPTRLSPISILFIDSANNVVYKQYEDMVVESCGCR

[4] = biological target: growth differentiation factor 5 (GDF5), wild type (UniProt P43026); test: SPR; Biacore T200, 25 °C; GDF5 amine-coupled to a CM5 chip (830, 970 or 1370 RU); RGMBND variants or BSA as analytes; 0.5 M NaCl, 20 mM HEPES pH 7.4, 0.05% (v/v) Tween 20; Kd from the dose-dependency of equilibrium binding, 1:1 Langmuir isotherm
Target sequence in this assay (P43026 28-501): as the sequence (P43026 28-501) above

[5] = biological target: bone morphogenetic protein 2 (BMP2) (UniProt P12643)
[6] = biological target: growth differentiation factor 5 (GDF5), wild type (UniProt P43026); test: SPR; ProteOn XPR36; BMP2 (570 RU) or GDF5 (470 RU) amine-coupled to a GLC sensor chip; ActR2b ectodomain perfused at 6 µM to 187.5 nM, 100 µl/min; 0.005% (v/v) Tween 20 buffer; Kd from the dose-dependency of equilibrium binding, one-site model; apparent
Target sequence in this assay (P43026 28-501): as above

[7] = biological target: growth differentiation factor 5 (GDF5), wild type (UniProt P43026)
Target sequence in this assay (P43026 382-501): as the sequence (P43026 382-501) above

[8] = biological target: growth differentiation factor 5 (GDF5), wild type (UniProt P43026); test: SPR; ProteOn XPR36, 25 °C; BMP/TGF-β ligands immobilized on GLC chips by amine coupling, RGM proteins as analytes; 10 mM Hepes pH 7.4, 500 mM NaCl, 3.4 mM EDTA, 0.005% Tween20; 1:1 Langmuir kinetic fit, Kd = koff/kon; apparent Kd
Target sequence in this assay (P43026 382-501): as above

[9] = biological target: bone morphogenetic protein 2 (BMP2) (UniProt P12643); test: as above

bone morphogenetic protein 2 (BMP2), sequence (P12643 283-396): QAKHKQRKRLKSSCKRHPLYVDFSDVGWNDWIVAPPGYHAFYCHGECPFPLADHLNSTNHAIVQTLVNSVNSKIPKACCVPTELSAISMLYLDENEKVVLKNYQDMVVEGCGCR
BMPR1A ectodomain protein (residues Gln24 to Arg152), sequence (P36894 24-152): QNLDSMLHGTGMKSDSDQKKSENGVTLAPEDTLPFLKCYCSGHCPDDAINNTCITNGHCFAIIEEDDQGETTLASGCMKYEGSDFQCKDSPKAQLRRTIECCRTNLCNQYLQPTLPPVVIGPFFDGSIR
murine activin type-2 receptor ActR2b, soluble ectodomain (residues Gly20 to Glu127), sequence (P27040 20-127): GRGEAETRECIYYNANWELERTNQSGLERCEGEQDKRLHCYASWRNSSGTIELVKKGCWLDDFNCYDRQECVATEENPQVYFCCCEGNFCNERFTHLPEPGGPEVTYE

- koff [1]: 0.0048 s⁻¹
- kon [1]: 90000 M⁻¹ s⁻¹
Substance: BMPR1A ectodomain protein (residues Gln24 to Arg152) (from UniProt P36894 24-152) (receptor)

Substance: BMPR1A extracellular domain (BMPR1AECD, Thr55–Val141) (receptor)
- Kd [2]: 59 nM
- Kd [3]: 125 nM

- Kd [4]: > 200000 nM
Substance: RGMBND His106Arg (domain or fragment)

- BMP2 (3 nM) BMP-responsive luciferase reporter in LLC-PK1 cells expressing full-length membrane-anchored RGMB [5]: 3 fold
Substance: extracellular domain of human RGMB (RGMBECD, Gln53–Ser411) (domain or fragment)

- Kd [6]: 1300 nM
Substance: murine activin type-2 receptor ActR2b, soluble ectodomain (residues Gly20 to Glu127) (from UniProt P27040 20-127)

- GDF5 (30 nM) BMP-responsive luciferase reporter in LLC-PK1 cells expressing full-length membrane-anchored RGMA [7]: 2 fold
Substance: soluble RGMA extracellular domain (RGMAECD) for the ProteOn SPR studies (from UniProt Q96B86 48-424) (domain or fragment)

- Kd [8]: 2.7 nM
- Kd [9]: 4.2 nM
Substance: soluble RGMB extracellular domain (RGMBECD) for the ProteOn SPR studies (from UniProt Q6NW40 46-413) (domain or fragment)

- GDF5 (30 nM) BMP-responsive luciferase reporter in LLC-PK1 cells expressing full-length membrane-anchored RGMC [7]: 2 fold
Substance: soluble RGMC extracellular domain (RGMCECD) for the ProteOn SPR studies (from UniProt Q6ZVN8 36-400) (domain or fragment)
